The chains are these.
B1: HDV Ribozyme (parent)
chain: GGCCGGCAUGGUCCCAGCCUCCUCGCUGGCGCCGGCUGGGCAACAUUCCGAGGGGACCGUCCCCUCGGUAAUGGCGAAUGGGACCCA

The data set covers variants of B1. Kind of data set: self-cleavage, relative activity (ratio to wild type); higher = more cleavage; co-transcriptional.
As for A70C U79C, the self-cleavage was 0.18.
The result for G5A U20A reads 0.0437.
To C3A G73C belongs 0.0755.
Consider C14A A77C, for which the self-cleavage came to 0.115.
The result for C63A A83U reads 0.77; that for U9C G29U, 0.115; that for U27G G38U, 0.133.
With C30U A42C, the self-cleavage is 0.0282.
To C3U G73A belongs 0.366; to C4U C44U, 0.394.
For the variant U23A A77U, the self-cleavage worked out at 0.567.
To G2A G29A belongs 0.0288.
Turning to G55U A70C, the self-cleavage was 0.997.
The result for G5A U9C reads 0.0639.
The result for C18G U65A reads 0.138; that for G67U G74C, 0.151; that for G11C G34C, 0.0852.
To C58A C63G belongs 0.932; to C58A C63A, 1.04; to C18A A70U, 0.0898.
On to U27A G59U, for which the self-cleavage was 0.95.
The result for C33A C66A reads 0.485; that for C3A G28C, 0.0275; that for G59A A70C, 0.982.
Turning to A16G G25U, the self-cleavage came to 0.0875.
As for U65C A77U, the self-cleavage is 0.806.
For the variant C58U U60A, the self-cleavage turned out to be 0.845.
Regarding C58U U60C, the self-cleavage is 1.19.
As for G10A C66G, the self-cleavage came out at 0.623.
To C84A C85A belongs 0.571; to G25A C86G, 0.122; to C7U C75A, 0.177.
Turning to G25U G53C, the self-cleavage stood at 0.155.
To G6A C44G belongs 0.111; to C58G C64A, 0.855.
To U12C G76C belongs 0.364.
As to G1A A51C, the self-cleavage was found to be 0.0831.
The result for A78U C84G reads 0.0396.
To C61G C86G belongs 0.941; to C48U G76U, 1.15.
The result for U27C G29C reads 0.107.
Turning to G28A U47C, the self-cleavage was determined as 0.0739.
In the case of C26G G31C, the self-cleavage was 0.284.
With G74C C75G, the self-cleavage was determined as 0.0386.
As to G50A A78U, the self-cleavage was found to be 0.4.
To G39C C86G belongs 0.259.
In the case of G28C C41U, the self-cleavage came out at 0.0437.
For C33U C66G, the self-cleavage amounted to 0.946.
For C14U A56G, the self-cleavage came out at 1.16.
As for C18A C26U, the self-cleavage came out at 0.312.
To G28A A87U belongs 0.0932.
The result for C26U G31C reads 0.542; that for C26G A56G, 0.795; that for C19G C48U, 0.0733.
As for G1U G10U, the self-cleavage worked out at 0.336.
The result for G10A U27C reads 0.759; that for G68U G76C, 1.11; that for U20C C36U, 0.131.
Turning to C18A G29U, the self-cleavage is 0.821.
As to U47C U60A, the self-cleavage was determined as 0.987.
To A51G G74C belongs 0.148.
As to U23C A51U, the self-cleavage is 1.15.
To C21A G28A belongs 0.0268; to U46A C66A, 0.727; to G17C G28U, 0.0707.
To U65G A70G belongs 1.05; to C14A G68A, 0.811.
The result for U60C A71C reads 1.27; that for G17U C63U, 0.47; that for G35A G80C, 0.162.
Take C3G A56C: the self-cleavage came to 0.681.
The result for C32A A78U reads 0.0923; that for C18U C85U, 0.582.
To C30G G82C belongs 0.0326; to C3U A70U, 0.678.
The result for C19U G67U reads 0.145; that for U9C U23A, 1.13; that for C57U C64A, 0.901.
In the case of C4A C86A, the self-cleavage worked out at 0.185.
Turning to G5U G28C, the self-cleavage was determined as 0.0554.
To G1C G34C belongs 0.0594; to G2U C30A, 0.0396.
For the variant C4U C33A, the self-cleavage came out at 0.0845.
Take C7A C18U: the self-cleavage stood at 0.229.
For the variant G39C A51U, the self-cleavage came out at 0.219.
The result for U47G A51G reads 0.906; that for C26A A45C, 0.554; that for G34C G80C, 0.23.
The result for C15U G28A reads 0.0692.
To U12A C64U belongs 0.178; to G28A C84U, 0.0744; to C13U C14A, 0.155.
As for U37A G68U, the self-cleavage came out at 0.0845.
Take U9C C86A: the self-cleavage was determined as 1.03.
As for C4U C84G, the self-cleavage was 0.19.
To G31C A43C belongs 0; to G39A C61U, 0.54.
To U47A G74C belongs 0.104.
The result for G1U G50U reads 0.466; that for C19U C61U, 0.0898.
Regarding G39U G53U, the self-cleavage is 0.587.
The result for C14A G28C reads 0.142; that for C30A U47G, 0.682; that for C57G G81C, 0.177.
To C3G U27G belongs 0.479; to C22U U79C, 0.198; to A42G G52C, 0.733.
Regarding G11C C63U, the self-cleavage was determined as 0.264.
As to C4G G34U, the self-cleavage was determined as 0.864.
To C21U G68U belongs 0.271; to C58A C64G, 1.06; to G35A C41A, 0.562.
The result for C66G A71C reads 1.03.
The result for G31U A78U reads 0.0744; that for U46C C62G, 0.249.
On to C24U G25A, for which the self-cleavage worked out at 0.181.
Take A77C A87U: the self-cleavage worked out at 0.466.
To C32U C58G belongs 0.646.
To C22A A78G belongs 0.0369.
Regarding C33A C58U, the self-cleavage was determined as 0.142.
To G52C G67C belongs 0.446; to C36A G55U, 0.124; to A51G G52U, 1.02.
The result for C14A U47C reads 0.415; that for G29U A77G, 0.178; that for C21G U27G, 0.
To U20A C41G belongs 0.135.
G25U G80C: the self-cleavage was 0.0733.
Take C14A G59A: the self-cleavage came to 0.762.
To C4U G17C belongs 0.147; to C61G G76A, 0.906.
The result for G34U G53A reads 0.189; that for C3A C36G, 0.0608; that for G38A G67U, 0.135.
The result for G5U C30A reads 0.0462; that for C63A G73A, 0.681; that for C13G G29C, 0.0415.
Consider C7A U46G, for which the self-cleavage stood at 0.0755.
The result for C41G C44U reads 0.403; that for C49U C84G, 0.364.
On to G31U G40U, for which the self-cleavage is 0.166.
To U65G A71U belongs 0.863; to G81A C84U, 0.327; to C41U U79C, 0.332.
To C33A C62A belongs 0.344.
In the case of G59U C61A, the self-cleavage is 0.968.
To G29C G68A belongs 0.163; to A70G G80U, 0.177.
C30A G55A: the self-cleavage was 0.472.
Regarding G53A G68C, the self-cleavage is 0.604.
The result for G53U A56C reads 0.831; that for C3U U20C, 0.113; that for G50C C66A, 0.812.
To U23G C75A belongs 0; to U60C G80U, 0.157; to U20A C32U, 0.0811.
As for C19U G81U, the self-cleavage stood at 0.131.
Take C15G U23C: the self-cleavage is 0.332.
For G5A C49A, the self-cleavage was determined as 0.302.
With C13U G80U, the self-cleavage was 0.185.
Turning to C4A G11A, the self-cleavage stood at 0.0183.
To G39U G74A belongs 0.669.
To U27C G53C belongs 0.898.
Regarding U12A C58G, the self-cleavage stood at 0.383.
To U9G G29C belongs 0.
Take C30A G53U: the self-cleavage was determined as 0.443.
The result for C36U G59C reads 0.923.
